The assay deals with Recombinant 1-158 a.a. domain of TMCC3 protein (human) (UniProt Q9ULS5). Nature of the assay: Luminex immunosandwich assay; cell-free; protein coupled onto Luminex beads, incubated with various concentrations of recombinant AKT, washed, detected with fluorescence labeled anti-AKT antibody (MFI, n = 4).
UniProt Q9ULS5, sequence (Q9ULS5 1-158): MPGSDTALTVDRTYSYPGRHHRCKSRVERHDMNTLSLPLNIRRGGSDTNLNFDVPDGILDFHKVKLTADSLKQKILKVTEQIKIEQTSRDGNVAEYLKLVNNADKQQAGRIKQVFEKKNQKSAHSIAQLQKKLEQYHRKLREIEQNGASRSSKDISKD

The Kd is a measure of binding affinity in units of concentration. As to “recombinant AKT (from UniProt P31749 1-480) (natural protein)”, the Kd was found to be 1.67 nM.
